One assay deals with E. coli BW25113. It counts as cell-based, Escherichia coli. The settings on record: BW25113, 2 h. As for the experimental part: The minimal inhibitory concentrations (MIC) were determined at least twice in triplicate using a liquid broth microdilution assay in sterile 96-well plates and a total volume of 100 μL per well. Aqueous peptide solutions were serially 2-fold diluted in 25% MHBII or 33% TSB medium in a volume of 50 µL. An overnight culture was diluted in 25% MHBII or 33% TSB medium to 1.5 × 10^7 CFU/mL, and an aliquot of 50 μL was added to each well. The final cell count in each well was 7.5 × 10^6 CFU/mL. […] The turbidity of each well was measured at a wavelength of 600 nm. The MIC was defined as the lowest peptide concentration where the turbidity was identical to medium only.

Assay [1] relates to E. coli Rosetta DE3 pLysS. Description: MIC, liquid broth microdilution. The format is cell-based, Escherichia coli. The settings on record: 25% MHBII medium, 7.5 × 10^6 CFU/mL, 37 °C, 20 ± 2 h, turbidity 600 nm, at least twice in triplicate. The procedure:
The minimal inhibitory concentrations (MIC) were determined at least twice in triplicate using a liquid broth microdilution assay in sterile 96-well plates and a total volume of 100 μL per well. Aqueous peptide solutions were serially 2-fold diluted in 25% MHBII or 33% TSB medium in a volume of 50 µL. An overnight culture was diluted in 25% MHBII or 33% TSB medium to 1.5 × 10^7 CFU/mL, and an aliquot of 50 μL was added to each well. The final cell count in each well was 7.5 × 10^6 CFU/mL. The plates were incubated at 37 °C for 20 ± 2 h. The turbidity of each well was measured at a wavelength of 600 nm. The MIC was defined as the lowest peptide concentration where the turbidity was identical to medium only.

The test system of assay [2] is 70S ribosome, ribosomal binding site of Api805. Description: Fluorescence polarization competition with cf-Api805. The settings on record: Figure S2, twice in triplicate. On the set-up: species or system Escherichia coli. The procedure: Ki was determined for ribosome extracts using cf-labeled and unlabeled peptides in ribosome preparation buffer. Black 384-well plates were prepared as described above. Unlabeled peptides or antibiotics (20 μL, 656 μmol/L) were added and 2-fold serially diluted in 23 wells in ribosome preparation buffer. […] The fluorescence polarization was measured on a […] microplate reader in the top read position (λexc = 485 nm, λem = 535 nm) in triplicate on at least two different days. […] Inhibition constants, Ki, were calculated as described by Mathias and Jung. page 9: 140 140 120 120 100 100 80 80 60 60 40 40 […]. […]. […] 0 0 -20 -20 10 -2 1 10 2 10 4 10 6 10 -2 1 10 2 10 4 10 6 Pept ide Concent r at ion [ nM] Pept ide Concent r at ion [ nM] 140 140 120 120 100 100 80 80 60 60 40 40 20 Chlor […] ol vs. […] -20 -20 10 -2 1 10 2 10 4 10 6 10 -2 1 10 2 10 4 10 6 Ant ibiot ic Concent r at ion [ nM] Antibiotic Concentration [nM] 140 120 100 80 60 40 […] -20 10 -2 1 10 2 10 4 10 6 Ant ibiot ic Concent r at ion [ nM] Figure S2. […] tested as control in competition with Api137 or erythromycin. Experiments were done twice in triplicates. Error bars show the standard deviation of all six replicates. The horizontal dotted line separates positive and negative ranges on the Y-axis. - S9 - (also on this page, place not known: […]

Assay [3] deals with 70S ribosome extract of E. coli BW25113 (E. coli BW25113 (endogenous)). Put plainly: fluorescence polarisation; 2-fold dilution series of the ribosome extract (23 steps) mixed with cf-labeled peptide (20 µL, 40 nmol/L) in ribosome preparation buffer (20 mmol/L Hepes-KOH, 6 mmol/L MgCl2, 30 mmol/L NH4Cl, pH 7.6); 28 ± 1 °C, 90 min; Kd = x0 of a dose-response fit.
For assay [4], the target named is 70S ribosome extract of E. coli Rosetta DE3 pLysS (E. coli Rosetta DE3 pLysS (endogenous)). Described as above.
In assay [5] the test system is 70S ribosome extract of E. coli BW25113. Put plainly: Fluorescence polarization, Kd of cf-labeled peptides. The settings on record: 70S ribosome, refers to Table 2. It counts as binding, Escherichia coli. The procedure:
E. coli BW25113 and E. coli Rosetta pLysS were cultivated in LB medium and harvested at an OD600 of ~4 by centrifugation (5000× g, 30 min, 4 °C). The cell pellets were washed by resuspension in ribosome preparation buffer (20 mmol/L Hepes-KOH, 6 mmol/L MgCl2, 30 mmol/L NH4Cl, pH 7.6, 4°C) and subsequent centrifugation (5000× g, 30 min, 4 °C). Cell pellets were suspended in ribosome preparation buffer ([…]) containing freshly added 2-mercapotethanol (4 mmol/L). Lysozyme was added to the resuspended cells and incubated on ice for 30 min. The cell suspension was disrupted six times using a FastPrep-24^TM 5G instrument (MP Biomedicals, Solon, OH, USA) with BigPrep 50 mL setting (40 s, 4.0 m/s), incubated with DNase I (5 mL/L) on ice for one hour and centrifuged (16,000× g, 30 min, 4 °C). The cell debris was removed from the supernatant by centrifugation (32,000× g, 60 min, 4 °C), and the supernatant was centrifuged again (165,000× g, 17 h, 4 °C). The pellet was resuspended in ribosome preparation buffer (0.1 mL per g cell pellet) to obtain the 70S ribosome extract and stored at −80 °C. The ribosome concentration was estimated by recording the absorbance at 260 nm (1 AU for a ribosome concentration of 28 nmol/L). The molecular weight of the 70S E. coli ribosome was assumed to be 2.3 MDa.
Kd was determined using a ribosome extract and cf-labeled peptides in ribosome preparation buffer. Briefly, black 384-well plates (flat bottom, Greiner Bio-One GmbH) were blocked with casein (0.5%, w/v) in phosphate buffer containing 0.05% (v/v) Tween 20 at 4 °C overnight and washed three times with phosphate buffer. A 2-fold dilution series of the ribosome extract (20 μL per well) in ribosome preparation buffer was prepared in a black 384-well plate (23 dilution steps). The cf-labeled peptide was dissolved in ribosome preparation buffer (20 μL, 40 nmol/L), added to each well, and incubated at 28 ± 1 °C. After 90 min, the fluorescence polarization was measured on a PARADIGMTM microplate reader (Beckman Coulter, Salzburg, Austria) in the top read position (λexc = 485 nm, λem = 535 nm) in triplicate on at least two different days. Data were fitted to a nonlinear, dose–response logistical transition equation [y= y0 + a/(1 + (x/x0)b)] using the Levenberg–Marquardt algorithm, with dissociation constants (Kd) represented by the x0 coefficients (GraphPad Prism for Windows v. 5.02, San Diego, CA, USA).

The target of assay [6] is 70S ribosome extract of E. coli BW25113 (E. coli BW25113 (endogenous)). Description: fluorescence polarisation; competition: unlabeled peptide (2-fold series from 656 µmol/L) pre-incubated with BW25113 ribosome extract (28 °C, 90 min), then cf-Onc112 (10 µL, 80 nmol/L) added (28 °C, 90 min); ribosome preparation buffer; Ki calculated from IC50.
The target is the same in assay [7]. Put plainly: fluorescence polarisation; competition: unlabeled peptide (2-fold series from 656 µmol/L) pre-incubated with BW25113 ribosome extract (28 °C, 90 min), then cf-Api137 (10 µL, 80 nmol/L) added (28 °C, 90 min); ribosome preparation buffer; Ki calculated from IC50.

Values after ≈ are worked out from the molar mass of the structure shown. Square brackets hold non-standard residues; d marks the D form. Ends that are not written are not given here. Peptide text beside a SMILES is read from it.

We go through eleven molecules from paper PMC9025336 (Antibiotics, 2022).

Consider `CC[C@H](C)[C@H](NC(=O)[C@@H]1CCCN1C(=O)[C@H](CCCNC(=N)N)NC(=O)[C@H](CC(N)=O)NC(=O)[C@H](CC(N)=O)NC(=O)CN)C(=O)N[C@@H](Cc1ccc(O)cc1)C(=O)N[C@H](C(=O)N1CCC[C@H]1C(=O)N[C@@H](CCCNC(=N)N)C(=O)N1CCC[C@H]1C(=O)N[C@@H](CCCNC(=N)N)C(=O)N1CCC[C@H]1C(=O)N1CCC[C@H]1C(=O)N[C@@H](Cc1c[nH]cn1)C(=O)N1CCC[C@H]1C(=O)N[C@@H](CCCNC(=N)N)C(=O)N[C@@H](CC(C)C)C(=O)O)[C@@H](C)CC` [Api801] (H-GNNRPIYIPRPRPPHPRL-OH), for which the “MIC, BW” value with E. coli BW25113 is given as 16 µg/mL (≈ 7.44 µM). Besides, the “MIC, Ros” value in assay [1] was found to be 4 µg/mL (≈ 1.86 µM).
On to `O=C(N[C@H](CO)[C@H](O)c1ccc([N+](=O)[O-])cc1)C(Cl)Cl` [chloramphenicol], for which the “inhibition of the binding of cf-labeled Api805” value (“inhibition” below) in assay [2] was “none inhibited”.
As to `CC[C@H]1OC(=O)[C@H](C)[C@@H](O[C@H]2C[C@@](C)(OC)[C@@H](O)[C@H](C)O2)[C@H](C)[C@@H](O[C@@H]2O[C@H](C)C[C@H](N(C)C)[C@H]2O)[C@](C)(O)C[C@@H](C)C(=O)[C@H](C)[C@@H](O)[C@]1(C)O` [erythromycin], in assay [2], the “inhibition” value is “none inhibited”.
For the molecule `NC[C@H]1O[C@H](O[C@H]2[C@H](O)[C@@H](O[C@H]3O[C@H](CO)[C@@H](O)[C@H](N)[C@H]3O)[C@H](N)C[C@@H]2N)[C@H](O)[C@@H](O)[C@@H]1O` [kanamycin], the “inhibition” value in assay [2] was “none inhibited”.
In assay [3], cf-Api88 (peptide) gave a Kd of 906 nM. That is a sub-micromolar value.
Regarding cf-Api137 (peptide), the Kd worked out at 198 nM in assay [4] and 382 nM in assay [3].
On to “cf-Api805: Api805 labeled with 5(6)-carboxyfluorescein at the N-terminus ({5(6)‑carboxyfluorescein}-GNNRPIYIPRPRPPHPRPIRV-OH)”, for which, in assay [5], the “Kd values of cf-labeled peptides, in words” value is “nanomolar range”.
For the molecule GNNRPIYIPRPRPPHPRL-OH [Api801], the Ki in assay [6] is 247 nM; in assay [7] it was 2 nM.
With {5(6)‑carboxyfluorescein}-GNNRPIYIPRPRPPHPRPIRV-OH [cf-Api805], the Kd in assay [4] was found to be 515 nM; in assay [3], 557 nM.
As for {5(6)‑carboxyfluorescein}-VDKPPYLPRPRPPR[dR]IYN[dR]-NH2 [cf-Onc112], the Kd in assay [4] came to 51 nM; in assay [3], 27 nM.
Take VDKPPYLPRPRPPR[dR]IYN[dR]-NH2 [Onc112]: the Ki is 8 nM in assay [6] and 606 nM in assay [7].
